Assay results taken from patent US20230140435.
Numbering of substitutions follows the chain as printed. In names and notes the source's numbering stands.

Molecular target: free tubulin (tubulin dimers) of isolated rat cardiomyocytes

B1: tubulin tyrosine ligase (TTL) (protein)
chain: MYTFVVRDENSSVYAEVSRLLLATGHWKRLRRDNPRFNLMLGERNRLPFGRLGHEPGLVQLVNYYRGADKLCRKASLVKLIKTSPELAESCTWFPESYVIYPTNLKTPVAPAQNGIQPPISNSRTDEREFFLASYNRKKEDGEGNVWIAKSSAGAKGEGILISSEASELLDFIDNQGQVHVIQKYLEHPLLLEPGHRKFDIRSWVLVDHQYNIYLYREGVLRTASEPYHVDNFQDKTCHLTNHCIQKEYSKNYGKYEEGNEMFFKEFNQYLTSALNITLESSILLQIKHIIRNCLLSVEPAISTKHLPYQSFQLFGFDFMVDEELKVWLIEVNGAPACAQKLYAELCQGIVDIAISSVFPPPDVEQPQTQPAAFIKL
With B1 the “free:polymerized tubulin ratio (microtubule fractionation assay, western blot, isolated rat cardiomyocytes)” value was “Both TTL and TTL-E331Q overexpression increased the amount of free tubulin relative to polymerized microtubules”.

B2: TTL catalytic-dead construct (TTL-E331Q) (protein)
chain: B1 chain with E331Q
In the case of B2, the “free:polymerized tubulin ratio (microtubule fractionation assay, western blot, isolated rat cardiomyocytes)” value is reported as “Both TTL and TTL-E331Q overexpression increased the amount of free tubulin relative to polymerized microtubules”.
